Results taken from article PMC7367873, “Dissecting the sequence determinants for dephosphorylation by the catalytic subunits of phosphatases PP1 and PP2A” (Nature Communications, 2020).

B1: PRSS56 (protein, UniProt P0CW18 20-603, looked up)
Serine protease 56: HPLYTRLPPSALQVLSAQGTQALQAAQRSAQWAINRVAMEIQHRSHECRGSGRPRPQALLQDPPEPGPCGERRPSTANVTRAHGRIVGGSAAPPGAWPWLVRLQLGGQPLCGGVLVAASWVLTAAHCFVGAPNELLWTVTLAEGSRGEQAEEVPVNRILPHPKFDPRTFHNDLALVQLWTPVSPGGSARPVCLPQEPQEPPAGTACAIAGWGALFEDGPEAEAVREARVPLLSTDTCRRALGPGLRPSTMLCAGYLAGGVDSCQGDSGGPLTCSEPGPRPREVLFGVTSWGDGCGEPGKPGVYTRVAVFKDWLQEQMSASSSREPSCRELLAWDPPQELQADAARLCAFYARLCPGSQGACARLAHQQCLQRRRRCELRSLAHTLLGLLRNAQELLGPRPGLRRLAPALALPAPALRESPLHPARELRLHSGSRAAGTRFPKRRPEPRGEANGCPGLEPLRQKLAALQGAHAWILQVPSEHLAMNFHEVLADLGSKTLTGLFRAWVRAGLGGRHVAFSGLVGLEPATLARSLPRLLVQALQAFRVAALAEGEPEGPWMDVGQGPGLERKGHHPLNPQVPPARQP
B2: FAM83B (protein, UniProt Q5T0W9 1-1011, looked up)
Protein FAM83B: METSSMLSSLNDECKSDNYIEPHYKEWYRVAIDILIEHGLEAYQEFLVQERVSDFLAEEEINYILKNVQKVAQSTAHGTDDSCDDTLSSGTYWPVESDVEAPNLDLGWPYVMPGLLGGTHIDLLFHPPRAHLLTIKETIRKMIKEARKVIALVMDIFTDVDIFKEIVEASTRGVSVYILLDESNFNHFLNMTEKQGCSVQRLRNIRVRTVKGQDYLSKTGAKFHGKMEQKFLLVDCQKVMYGSYSYMWSFEKAHLSMVQIITGQLVESFDEEFRTLYARSCVPSSFAQEESARVKHGKALWENGTYQHSVSSLASVSSQRNLFGRQDKIHKLDSSYFKNRGIYTLNEHDKYNIRSHGYKPHFVPNFNGPNAIRQFQPNQINENWKRHSYAGEQPETVPYLLLNRALNRTNNPPGNWKKPSDSLSVASSSREGYVSHHNTPAQSFANRLAQRKTTNLADRNSNVRRSFNGTDNHIRFLQQRMPTLEHTTKSFLRNWRIESYLNDHSEATPDSNGSALGDRFEGYDNPENLKANALYTHSRLRSSLVFKPTLPEQKEVNSCTTGSSNSTIIGSQGSETPKEVPDTPTNVQHLTDKPLPESIPKLPLQSEAPKMHTLQVPENHSVALNQTTNGHTESNNYIYKTLGVNKQTENLKNQQTENLLKRRSFPLFDNSKANLDPGNSKHYVYSTLTRNRVRQPEKPKEDLLKSSKSMHNVTHNLEEDEEEVTKRNSPSGTTTKSVSIAALLDVNKEESNKELASKKEVKGSPSFLKKGSQKLRSLLSLTPDKKENLSKNKAPAFYRLCSSSDTLVSEGEENQKPKKSDTKVDSSPRRKHSSSSNSQGSIHKSKEDVTVSPSQEINAPPDENKRTPSPGPVESKFLERAGDASAPRFNTEQIQYRDSREINAVVTPERRPTSSPRPTSSELLRSHSTDRRVYSRFEPFCKIESSIQPTSNMPNTSINRPEIKSATMGNSYGRSSPLLNYNTGVYRSYQPNENKFRGFMQKFGNFIHKNK
B3: ERLIN1 (protein, UniProt O75477 1-348, looked up)
Erlin-1: MNMTQARVLVAAVVGLVAVLLYASIHKIEEGHLAVYYRGGALLTSPSGPGYHIMLPFITTFRSVQTTLQTDEVKNVPCGTSGGVMIYIDRIEVVNMLAPYAVFDIVRNYTADYDKTLIFNKIHHELNQFCSAHTLQEVYIELFDQIDENLKQALQKDLNLMAPGLTIQAVRVTKPKIPEAIRRNFELMEAEKTKLLIAAQKQKVVEKEAETERKKAVIEAEKIAQVAKIRFQQKVMEKETEKRISEIEDAAFLAREKAKADAEYYAAHKYATSNKHKLTPEYLELKKYQAIASNSKIYFGSNIPNMFVDSSCALKYSDIRTGRESSLPSKEALEPSGENVIQNKESTG
B4: PFKL (protein, UniProt P17858 2-780, looked up)
ATP-dependent …: AAVDLEKLRASGAGKAIGVLTSGGDAQGMNAAVRAVTRMGIYVGAKVFLIYEGYEGLVEGGENIKQANWLSVSNIIQLGGTIIGSARCKAFTTREGRRAAAYNLVQHGITNLCVIGGDGSLTGANIFRSEWGSLLEELVAEGKISETTARTYSHLNIAGLVGSIDNDFCGTDMTIGTDSALHRIMEVIDAITTTAQSHQRTFVLEVMGRHCGYLALVSALASGADWLFIPEAPPEDGWENFMCERLGETRSRGSRLNIIIIAEGAIDRNGKPISSSYVKDLVVQRLGFDTRVTVLGHVQRGGTPSAFDRILSSKMGMEAVMALLEATPDTPACVVTLSGNQSVRLPLMECVQMTKEVQKAMDDKRFDEATQLRGGSFENNWNIYKLLAHQKPPKEKSNFSLAILNVGAPAAGMNAAVRSAVRTGISHGHTVYVVHDGFEGLAKGQVQEVGWHDVAGWLGRGGSMLGTKRTLPKGQLESIVENIRIYGIHALLVVGGFEAYEGVLQLVEARGRYEELCIVMCVIPATISNNVPGTDFSLGSDTAVNAAMESCDRIKQSASGTKRRVFIVETMGGYCGYLATVTGIAVGADAAYVFEDPFNIHDLKVNVEHMTEKMKTDIQRGLVLRNEKCHDYYTTEFLYNLYSSEGKGVFDCRTNVLGHLQQGGAPTPFDRNYGTKLGVKAMLWLSEKLREVYRKGRVFANAPDSACVIGLKKKAVAFSPVTELKKDTDFEHRMPREQWWLSLRLMLKMLAQYRISMAAYVSGELEHVTRRTLSMDKGF
B5: NCBP1 (protein, UniProt Q09161 1-790, looked up)
Nuclear cap-binding protein …: MSRRRHSDENDGGQPHKRRKTSDANETEDHLESLICKVGEKSACSLESNLEGLAGVLEADLPNYKSKILRLLCTVARLLPEKLTIYTTLVGLLNARNYNFGGEFVEAMIRQLKESLKANNYNEAVYLVRFLSDLVNCHVIAAPSMVAMFENFVSVTQEEDVPQVRRDWYVYAFLSSLPWVGKELYEKKDAEMDRIFANTESYLKRRQKTHVPMLQVWTADKPHPQEEYLDCLWAQIQKLKKDRWQERHILRPYLAFDSILCEALQHNLPPFTPPPHTEDSVYPMPRVIFRMFDYTDDPEGPVMPGSHSVERFVIEENLHCIIKSHWKERKTCAAQLVSYPGKNKIPLNYHIVEVIFAELFQLPAPPHIDVMYTTLLIELCKLQPGSLPQVLAQATEMLYMRLDTMNTTCVDRFINWFSHHLSNFQFRWSWEDWSDCLSQDPESPKPKFVREVLEKCMRLSYHQRILDIVPPTFSALCPANPTCIYKYGDESSNSLPGHSVALCLAVAFKSKATNDEIFSILKDVPNPNQDDDDDEGFSFNPLKIEVFVQTLLHLAAKSFSHSFSALAKFHEVFKTLAESDEGKLHVLRVMFEVWRNHPQMIAVLVDKMIRTQIVDCAAVANWIFSSELSRDFTRLFVWEILHSTIRKMNKHVLKIQKELEEAKEKLARQHKRRSDDDDRSSDRKDGVLEEQIERLQEKVESAQSEQKNLFLVIFQRFIMILTEHLVRCETDGTSVLTPWYKNCIERLQQIFLQHHQIIQQYMVTLENLLFTAELDPHILAVFQQFCALQA
B6: RBM3 (protein, UniProt P98179 1-157, looked up)
RNA-binding protein 3: MSSEEGKLFVGGLNFNTDEQALEDHFSSFGPISEVVVVKDRETQRSRGFGFITFTNPEHASVAMRAMNGESLDGRQIRVDHAGKSARGTRGGGFGAHGRGRSYSRGGGDQGYGSGRYYDSRPGGYGYGYGRSRDYNGRNQGGYDRYSGGNYRDNYDN

What follows are molecules tested on GFP-14-3-3β (assay: GFP-14-3-3β co-IP with LC-MS/MS, untreated GFP-14-3-3β versus GFP control (14-3-3 interactome)). Conditions: untreated vs GFP; label-free quantification.
Type: binding, human
Protocol: (§1) HeLa Kyoto cells expressing transiently transfected pEGFP(C1)-14-3-3β or pEGFP(C1) control plasmid, were incubated with 20 nM Calyculin A (# 9902 S, Cell Signaling Technology) for 12 min. Cells were washed twice on ice with cold PBS and after addition of 500 µL lysis buffer (100 mM NaCl, 10 mM Tris, 0.1% IGEPAL, 1 mM EDTA, 1 mM EGTA, 20 nM Calyculin A, 1x cOmplete Mini protease inhibitor cocktail (Sigma), 1 mM DTT, 1 mM MnCl2) cells were scraped from plates, lysed by 10 pushes through an injection needle (21 G, BD) and the insoluble fraction was pelleted by centrifugation (10 min, 10^4 rcf, 4 °C). Supernatants were then subjected to incubation with 1 µM recombinant phosphatase or buffer for 1 h at 30 °C. Next, we subjected samples to immunoprecipitation using α-GFP nanobodies covalently coupled to agarose beads (2 h, 4 °C, obtained from the EMBL PEPcore Core Facility). Beads were then washed three times with lysis buffer and samples were eluted in 1x LDS sample buffer (Thermo Fisher Scientific) by heating to 70 °C for 10 min.
(§2) The samples were then reduced with 25 mM dithiothreitol (10 min at 70 °C) and alkylated with 55 mM chloroacetamide (room temperature, 30 min, in the dark). Proteins were run on a precast 4–12% NuPAGE gel (ThermoFisher Scientific) for about 1 cm to concentrate the sample prior to in-gel tryptic digestion, which was performed according to the standard procedures. The peptides obtained were dried to completeness and resuspended in 12 µL of buffer A (0.1% FA), and 5 µL of sample were injected per MS measurement. The experiment was carried out in three independent replicates.
(§3) The samples were analyzed by LC-MS/MS on a Dionex Ultimate 3000 nano-HPLC coupled online to a Fusion Lumos Tribrid mass spectrometer (Thermo Fisher Scientific). Peptides were delivered to a trap column (75 µm × 2 cm, packed in-house with 5 µm C18 resin; Reprosil PUR AQ, Dr. Maisch) and washed using 0.1% FA at a flow rate of 5 µL/min for 10 min. Subsequently, peptides were transferred to an analytical column (75 µm × 45 cm, packed in-house with 3 µm C18 resin; Reprosil Gold) applying a flow rate of 300 nL/min and separated using a 60 min linear gradient from 4% to 32% LC solvent B (0.1% FA, 5% DMSO in ACN) in LC solvent A (0.1% FA in 5% DMSO). The eluate from the analytical column was sprayed via a stainless steel emitter (Thermo Fisher Scientific) at a source voltage of 2.1 kV into the mass spectrometer. The transfer capillary was heated to 275 °C. The Fusion Lumos was operated in positive ionization mode and data-dependent acquisition (DDA), automatically switching between MS1 and MS2 spectrum acquisition. Full scan MS1 spectra were recorded in the Orbitrap from 360 to 1300 m/z at a resolution of 60k (automatic gain control (AGC) target value of 4e5 charges, maximum injection time (maxIT) of 50 ms). Up to 20 peptide precursors were isolated (isolation window, 1.7 m/z; maximum injection time, 25 ms; and AGC value, 1e5), fragmented by high-energy collision-induced dissociation (HCD) using 30% normalized collision energy (NCE), and analyzed at a resolution of 15k in the Orbitrap. Precursor ions that were singly charged, unassigned, or with charge states >6+ were excluded. The dynamic exclusion duration of fragmented precursor ions was 20 s.
(§4) Peptide and protein identification and LFQ were performed using MaxQuant software (version 1.6.1.0)[64] by searching the data against all canonical protein sequences as annotated in the Swissprot reference database (human proteins only, 20193 entries, downloaded 22 March 2016, internally annotated with PFAM domains) using the embedded search engine Andromeda[65]. The MaxQuant search was performed using two variable modifications; oxidation of methionine and N-terminal protein acetylation. Carbamidomethylation on cysteines was specified as a fixed modification. Trypsin (Trypsin/P) was specified as the proteolytic enzyme with up to two allowed missed cleavage sites.

Molecule | Difference (log2), untreated vs GFP
B1 | -0.4107 log2
B2 | -0.8224 log2
B3 | 0.5977 log2
B4 | -0.3869 log2
B5 | -0.001907 log2
B6 | 0.8571 log2

Each molecule was assayed on GFP-14-3-3β and its binding proteins (assay: GFP-14-3-3β co-IP with LC-MS/MS label-free quantification, untreated versus PP1c-treated). Conditions: PP1 vs untreated; label-free quantification.
Design: species or system human
Protocol: as §1, §2, §3, §4

Molecule | Difference (log2), PP1 vs untreated
B1 | 1.257 log2
B2 | 1.224 log2
B3 | 1.221 log2
B4 | 1.256 log2
B5 | 1.197 log2
B6 | 1.211 log2
